Positions count from the first letter of the chain named. Names and notes keep the numbering of the source. Blank lines part the entries; values can stand above or below the binder they belong to.
Target: biotinylated His-Avi-TEAD (194-411) (UniProt P28347)
Assay: SSM screen, enrichment after two rounds of sorting

B1: E03T variant of SEQ ID NO: 1 (designed binder)
chain: GSPDTYIERAKECCKKGDIQCCLRYFEESGDPNVMLICLFCP
enrichment score: 1.19

B3: D02L variant of SEQ ID NO: 1 (designed binder)
chain: B1 chain with D4L, T5E
enrichment score: -3.53

B5: P01V variant of SEQ ID NO: 1 (designed binder)
chain: B1 chain with P3V, T5E
enrichment score: -0.59

B8: Y04L variant of SEQ ID NO: 1 (designed binder)
chain: B1 chain with T5E, Y6L
enrichment score: -1.81

B12: E03F variant of SEQ ID NO: 1 (designed binder)
chain: B1 chain with T5F
enrichment score: 0.32

B18: P01I variant of SEQ ID NO: 1 (designed binder)
chain: B1 chain with P3I, T5E
enrichment score: -2.27

B19: P01A variant of SEQ ID NO: 1 (designed binder)
chain: B1 chain with P3A, T5E
enrichment score: 0.36

B20: I05A variant of SEQ ID NO: 1 (designed binder)
chain: B1 chain with T5E, I7A
enrichment score: -1.2

B21: P01F variant of SEQ ID NO: 1 (designed binder)
chain: B1 chain with P3F, T5E
enrichment score: -1.3

B24: P01L variant of SEQ ID NO: 1 (designed binder)
chain: B1 chain with P3L, T5E
enrichment score: -2.9

B26: D02W variant of SEQ ID NO: 1 (designed binder)
chain: B1 chain with D4W, T5E
enrichment score: -2.95

B27: D02A variant of SEQ ID NO: 1 (designed binder)
chain: B1 chain with D4A, T5E
enrichment score: -1.43

B28: D02F variant of SEQ ID NO: 1 (designed binder)
chain: B1 chain with D4F, T5E
enrichment score: -3.41

B33: E03I variant of SEQ ID NO: 1 (designed binder)
chain: B1 chain with T5I
enrichment score: -0.26

B35: E03A variant of SEQ ID NO: 1 (designed binder)
chain: B1 chain with T5A
enrichment score: -2.02

B36: D02I variant of SEQ ID NO: 1 (designed binder)
chain: B1 chain with D4I, T5E
enrichment score: -0.7

B37: Y04F variant of SEQ ID NO: 1 (designed binder)
chain: B1 chain with T5E, Y6F
enrichment score: 0.67

B41: Y04A variant of SEQ ID NO: 1 (designed binder)
chain: B1 chain with T5E, Y6A
enrichment score: 0.26

B42: I05V variant of SEQ ID NO: 1 (designed binder)
chain: B1 chain with T5E, I7V
enrichment score: -0.27

B43: D02V variant of SEQ ID NO: 1 (designed binder)
chain: B1 chain with D4V, T5E
enrichment score: -2.34

B46: E03V variant of SEQ ID NO: 1 (designed binder)
chain: B1 chain with T5V
enrichment score: -1.39

B47: E03L variant of SEQ ID NO: 1 (designed binder)
chain: B1 chain with T5L
enrichment score: 0.32

B49: E03W variant of SEQ ID NO: 1 (designed binder)
chain: B1 chain with T5W
enrichment score: -1.4

B51: Y04I variant of SEQ ID NO: 1 (designed binder)
chain: B1 chain with T5E, Y6I
enrichment score: -0.41

B54: Y04W variant of SEQ ID NO: 1 (designed binder)
chain: B1 chain with T5E, Y6W
enrichment score: -2.47

B55: I05F variant of SEQ ID NO: 1 (designed binder)
chain: B1 chain with T5E, I7F
enrichment score: -8.36

B56: Y04T variant of SEQ ID NO: 1 (designed binder)
chain: B1 chain with T5E, Y6T
enrichment score: -0.87

B57: I05L variant of SEQ ID NO: 1 (designed binder)
chain: B1 chain with T5E, I7L
enrichment score: -0.38

B59: Y04V variant of SEQ ID NO: 1 (designed binder)
chain: B1 chain with T5E, Y6V
enrichment score: -0.75

B60: I05T variant of SEQ ID NO: 1 (designed binder)
chain: B1 chain with T5E, I7T
enrichment score: -1.77

B62: P01W variant of SEQ ID NO: 1 (designed binder)
chain: B1 chain with P3W, T5E
enrichment score: -9.1

The remaining lines, values ahead:

enrichment score: -1.56
B2: E06I variant of SEQ ID NO: 1 (designed binder)
chain: B1 chain with T5E, E8I

enrichment score: -0.24
B4: E10A variant of SEQ ID NO: 1 (designed binder)
chain: B1 chain with T5E, E12A

enrichment score: -0.4
B6: E06L variant of SEQ ID NO: 1 (designed binder)
chain: B1 chain with T5E, E8L

enrichment score: -1.6
B7: E10F variant of SEQ ID NO: 1 (designed binder)
chain: B1 chain with T5E, E12F

enrichment score: -1.53
B9: E06W variant of SEQ ID NO: 1 (designed binder)
chain: B1 chain with T5E, E8W

enrichment score: -3.03
B10: K09I variant of SEQ ID NO: 1 (designed binder)
chain: B1 chain with T5E, K11I

enrichment score: -3.84
B11: A08T variant of SEQ ID NO: 1 (designed binder)
chain: B1 chain with T5E, A10T

enrichment score: -2.31
B13: R07V variant of SEQ ID NO: 1 (designed binder)
chain: B1 chain with T5E, R9V

enrichment score: -1.55
B14: E06V variant of SEQ ID NO: 1 (designed binder)
chain: B1 chain with T5E, E8V

enrichment score: -0.39
B15: R07L variant of SEQ ID NO: 1 (designed binder)
chain: B1 chain with T5E, R9L

enrichment score: -9.93
B16: A08L variant of SEQ ID NO: 1 (designed binder)
chain: B1 chain with T5E, A10L

enrichment score: -0.68
B17: E06A variant of SEQ ID NO: 1 (designed binder)
chain: B1 chain with T5E, E8A

enrichment score: -0.65
B22: E10I variant of SEQ ID NO: 1 (designed binder)
chain: B1 chain with T5E, E12I

enrichment score: -1.27
B23: K09A variant of SEQ ID NO: 1 (designed binder)
chain: B1 chain with T5E, K11A

enrichment score: -4.33
B25: A08F variant of SEQ ID NO: 1 (designed binder)
chain: B1 chain with T5E, A10F

enrichment score: -1.04
B29: R07F variant of SEQ ID NO: 1 (designed binder)
chain: B1 chain with T5E, R9F

enrichment score: -4.07
B30: R07T variant of SEQ ID NO: 1 (designed binder)
chain: B1 chain with T5E, R9T

enrichment score: -3.52
B31: K09F variant of SEQ ID NO: 1 (designed binder)
chain: B1 chain with T5E, K11F

enrichment score: -8.31
B32: A08I variant of SEQ ID NO: 1 (designed binder)
chain: B1 chain with T5E, A10I

enrichment score: -7.46
B34: I05W variant of SEQ ID NO: 1 (designed binder)
chain: B1 chain with T5E, I7W

enrichment score: -1.57
B38: E10T variant of SEQ ID NO: 1 (designed binder)
chain: B1 chain with T5E, E12T

enrichment score: -1.96
B39: E06F variant of SEQ ID NO: 1 (designed binder)
chain: B1 chain with T5E, E8F

enrichment score: -0.92
B40: E06T variant of SEQ ID NO: 1 (designed binder)
chain: B1 chain with T5E, E8T

enrichment score: -4.43
B44: A08V variant of SEQ ID NO: 1 (designed binder)
chain: B1 chain with T5E, A10V

enrichment score: -1.83
B45: E10L variant of SEQ ID NO: 1 (designed binder)
chain: B1 chain with T5E, E12L

enrichment score: 0.28
B48: R07A variant of SEQ ID NO: 1 (designed binder)
chain: B1 chain with T5E, R9A

enrichment score: -11.2
B50: K09L variant of SEQ ID NO: 1 (designed binder)
chain: B1 chain with T5E, K11L

enrichment score: -3.98
B52: R07I variant of SEQ ID NO: 1 (designed binder)
chain: B1 chain with T5E, R9I

enrichment score: -1.77
B53: E10V variant of SEQ ID NO: 1 (designed binder)
chain: B1 chain with T5E, E12V

enrichment score: -8.88
B58: K09V variant of SEQ ID NO: 1 (designed binder)
chain: B1 chain with T5E, K11V

enrichment score: 2.68
B61: K09T variant of SEQ ID NO: 1 (designed binder)
chain: B1 chain with T5E, K11T

Reference: patent publication US20230151068A1
